According to US20240390508A1 (Takeda / Millennium, published 2024):

Biological target: T1, human transferrin receptor (hTfR) (human, UniProt P02786 89-760, limits assumed)
T1 construct: 0.5 uM hTfR solution immobilised on a Ni-NTA chip with EDC/NHS; source and construct are not described; also called human TfR
Test: SPR, hTfR immobilised on NTA chip, single cycle kinetics; A = KD less than 100 nM
Method: The various synthesized peptide-nucleic acid conjugates were tested for intermolecular interaction by surface plasmon resonance (SPR) of the peptide-nucleic acid conjugate with transferrin receptor (hTfR) using the method shown below. The specific test method is shown below.
NTA sensor chip (Global Life Science Technologies Japan Co., Ltd.) was inserted into Biacore T200 (Global Life Science Technologies Japan Co., Ltd.), prime operation was performed three times with running buffer: 10 mM HEPES pH 8.0 (Nacalai Tesque Co., Ltd.), 150 mM NaCl (Nacalai Tesque Co., Ltd.), 0.05% Tween 20 (Nacalai Tesque Co., Ltd.), 0.1% BSA (SIGMA-ALDRICH), and 1.0% DMSO (FUJIFILM Wako Pure Chemical Corporation), and equilibrated at a flow rate of 30 μL/min. 350 mM EDTA solution was reacted for 60 seconds at a flow rate of 10 μL/min, 0.5 mM NiCl₂ solution (Kishida Chemical) was reacted for 60 seconds at a flow rate of 10 μL/min, and the NTA sensor chip was washed with 3 mM EDTA solution (Nacalai Tesque Co., Ltd.) for 60 seconds at a flow rate of 10 μL/min. After mixing 50 μL each of 60 mM EDC solution (Global Life Science Technologies Japan Co., Ltd.) and 650 mM NHS solution (Global Life Science Technologies Japan Co., Ltd.), the mixture was reacted for 420 seconds at a flow rate of 10 μL/min. 150 μL of a 0.5 μM hTfR solution was prepared by diluting with a running buffer and reacted for 300 seconds at a flow rate of 10 μL/min to immobilize hTfR on the NTA sensor chip. After immobilization, capping was performed by reacting with a 1.0 M ethanolamine aqueous solution (Global Life Science Technologies Japan Co., Ltd.) at a flow rate of 10 μL/min for 420 seconds. A peptide-nucleic acid conjugate solution adjusted to 10 mM in DMSO solution was diluted with running buffer to a final concentration of […] peptide-nucleic acid conjugate solution, and 100 nM, 50 nM, 25 nM, 10 nM, 5 nM peptide-nucleic acid conjugate solutions were prepared. Using the aforementioned samples, the kinetics of the peptide against hTfR was obtained by SPR measurement.
The kinetics evaluation model was Single Cycle Kinetics, and curve fitting was performed using Biacore T200 Evaluation Software Version 3.0 (Global Life Science Technologies Japan Co., Ltd.).

T1 sequence (P02786 89-760 limits assumed): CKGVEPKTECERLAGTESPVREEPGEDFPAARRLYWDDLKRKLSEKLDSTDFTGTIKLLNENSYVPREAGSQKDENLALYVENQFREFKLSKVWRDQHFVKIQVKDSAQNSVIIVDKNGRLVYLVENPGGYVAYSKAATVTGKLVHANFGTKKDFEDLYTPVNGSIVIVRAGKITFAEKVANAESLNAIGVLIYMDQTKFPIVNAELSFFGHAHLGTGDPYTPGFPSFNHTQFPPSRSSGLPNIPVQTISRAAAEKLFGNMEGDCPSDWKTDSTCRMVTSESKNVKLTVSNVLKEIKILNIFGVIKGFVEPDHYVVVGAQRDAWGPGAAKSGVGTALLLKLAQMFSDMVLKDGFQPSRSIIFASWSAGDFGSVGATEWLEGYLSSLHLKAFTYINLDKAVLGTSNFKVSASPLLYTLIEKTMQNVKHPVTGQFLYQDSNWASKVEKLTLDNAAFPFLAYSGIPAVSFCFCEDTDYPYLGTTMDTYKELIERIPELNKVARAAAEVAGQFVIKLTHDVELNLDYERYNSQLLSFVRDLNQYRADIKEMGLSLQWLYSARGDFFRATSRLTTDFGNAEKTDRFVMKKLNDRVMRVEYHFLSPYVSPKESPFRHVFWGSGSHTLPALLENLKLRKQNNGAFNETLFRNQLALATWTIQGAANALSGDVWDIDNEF

| Binder | Kd |
| --- | --- |
| AVFVWNYYIIRRYYC (MeF at 3, MeY at 14 (N-methyl); thioether ring from N-terminal chloroacetyl-Ala to Cys 15; C-terminal Gly-KN3-NH2, azide joined to BCN on the oligonucleotide, also called A1/C2) [peptide-HDO conjugate of Example 2 (first nucleic acid strand A1, second nucleic acid strand C2)] | < 100 nM |
| AVFVWNYYIIRRYYC (MeF at 3, MeY at 14 (N-methyl); thioether ring from N-terminal chloroacetyl-Ala to Cys 15; C-terminal Gly-KN3-NH2, azide joined to BCN on the oligonucleotide, also called A1/C20) [peptide-HDO conjugate of Example 20 (first nucleic acid strand A1, second nucleic acid strand C20)] | < 100 nM |
| AVFVWNYYIIRRYYC (MeF at 3, MeY at 14 (N-methyl); thioether ring from N-terminal chloroacetyl-Ala to Cys 15; C-terminal Gly-KN3-NH2, azide joined to BCN on the oligonucleotide, also called A1/C7) [peptide-HDO conjugate of Example 7 (first nucleic acid strand A1, second nucleic acid strand C7)] | < 100 nM |
| Y11-PMO conjugate of Example 58 (not fully specified; N-terminal BCN; C-terminal amide; tBuS removed from Cys, Cys thiol joined to 3-maleimide propionyl A1; MeF at 3, MeY at 14 (N-methyl); thioether ring from N-terminal chloroacetyl-Ala to Cys 15; C-terminal Gly-KN3-NH2, azide joined to BCN of the linker peptide) peptide: AVFVWNYYIIRRYYC GGGEEESSC | < 100 nM |
| AVFVWNYYIIRRYYC (MeF at 3, MeY at 14 (N-methyl); thioether ring from N-terminal chloroacetyl-Ala to Cys 15; C-terminal Gly-KN3-NH2, azide joined to BCN on the oligonucleotide, also called A1/C18) [peptide-HDO conjugate of Example 18 (first nucleic acid strand A1, second nucleic acid strand C18)] | < 100 nM |
| AVFVWNYYIIRRYYC (MeF at 3, MeY at 14 (N-methyl); thioether ring from N-terminal chloroacetyl-Ala to Cys 15; C-terminal Gly-KN3-NH2, azide joined to BCN on the oligonucleotide, also called A2/C19) [peptide-HDO conjugate of Example 24 (first nucleic acid strand A2, second nucleic acid strand C19)] | < 100 nM |
| AVFVWNYYIIRRYYC (MeF at 3, MeY at 14 (N-methyl); thioether ring from N-terminal chloroacetyl-Ala to Cys 15; C-terminal Gly-KN3-NH2, azide joined to BCN on the oligonucleotide, also called A2/C13) [peptide-HDO conjugate of Example 13 (first nucleic acid strand A2, second nucleic acid strand C13)] | < 100 nM |
| AVFVWNYYIIRRYYC (MeF at 3, MeY at 14 (N-methyl); thioether ring from N-terminal chloroacetyl-Ala to Cys 15; C-terminal Gly-KN3-NH2, azide joined to BCN on the oligonucleotide, also called A2/C18) [peptide-HDO conjugate of Example 23 (first nucleic acid strand A2, second nucleic acid strand C18)] | < 100 nM |
| AVFVWNYYIIRRYYC (MeF at 3, MeY at 14 (N-methyl); thioether ring from N-terminal chloroacetyl-Ala to Cys 15; C-terminal Gly-KN3-NH2, azide joined to BCN on the oligonucleotide, also called A1/C4) [peptide-HDO conjugate of Example 4 (first nucleic acid strand A1, second nucleic acid strand C4)] | < 100 nM |
| AVFVWNYYIIRRYYC (MeF at 3, MeY at 14 (N-methyl); thioether ring from N-terminal chloroacetyl-Ala to Cys 15; C-terminal Gly-KN3-NH2, azide joined to BCN on the oligonucleotide, also called A1/C26) [peptide-HDO conjugate of Example 26 (first nucleic acid strand A1, second nucleic acid strand C26)] | < 100 nM |
| Y14-PMO conjugate of Example 61 (not fully specified; N-terminal 4-pentynoyl-AEEA; ivDde groups on the three Lys removed with hydrazine; C-terminal Gly coupled to PMO A4; MeF at 3, MeY at 14 (N-methyl); thioether ring from N-terminal chloroacetyl-Ala to Cys 15; C-terminal Gly-KN3-NH2, azide joined by copper-catalysed click to the 4-pentynoyl group of the linker …) peptide: AVFVWNYYIIRRYYC KKKG | < 100 nM |

Results, then the binder that gave them:

| Kd | Binder |
| --- | --- |
| < 100 nM | AVFVWNYYIIRRYYC (MeF at 3, MeY at 14 (N-methyl); thioether ring from N-terminal chloroacetyl-Ala to Cys 15; C-terminal Gly-KN3-NH2, azide joined to BCN on the oligonucleotide, also called A1/C30) [peptide-HDO conjugate of Example 30 (first nucleic acid strand A1, second nucleic acid strand C30)] |
| < 100 nM | AVFVWNYYIIRRYYC (MeF at 3, MeY at 14 (N-methyl); thioether ring from N-terminal chloroacetyl-Ala to Cys 15; C-terminal Gly-KN3-NH2, azide joined to BCN on the oligonucleotide, also called A2/C44) [peptide-HDO conjugate of Example 46 (first nucleic acid strand A2, second nucleic acid strand C44)] |
| < 100 nM | AVFVWNYYIIRRYYC (MeF at 3, MeY at 14 (N-methyl); thioether ring from N-terminal chloroacetyl-Ala to Cys 15; C-terminal Gly-KN3-NH2, azide joined to BCN on the oligonucleotide, also called A1/C29) [peptide-HDO conjugate of Example 29 (first nucleic acid strand A1, second nucleic acid strand C29)] |
| < 100 nM | AVFVWNYYIIRRYYC (MeF at 3, MeY at 14 (N-methyl); thioether ring from N-terminal chloroacetyl-Ala to Cys 15; C-terminal Gly-KN3-NH2, azide joined to BCN on the oligonucleotide, also called A1/C44) [peptide-HDO conjugate of Example 44 (first nucleic acid strand A1, second nucleic acid strand C44)] |
| < 100 nM | AVFVWNYYIIRRYYC (MeF at 3, MeY at 14 (N-methyl); thioether ring from N-terminal chloroacetyl-Ala to Cys 15; C-terminal Gly-KN3-NH2, azide joined to BCN on the oligonucleotide, also called A1/C27) [peptide-HDO conjugate of Example 27 (first nucleic acid strand A1, second nucleic acid strand C27)] |
| < 100 nM | AVFVWNYYIIRRYYC (not fully specified; MeF at 3, MeY at 14 (N-methyl); thioether ring from N-terminal chloroacetyl-Ala to Cys 15; C-terminal Gly-KN3-NH2, azide joined to BCN on the oligonucleotide, also called A4/C55) [peptide-HDO conjugate of Example 55 (first nucleic acid strand A4, second nucleic acid strand C55)] |
| < 100 nM | AVFVWNYYIIRRYYC (MeF at 3, MeY at 14 (N-methyl); thioether ring from N-terminal chloroacetyl-Ala to Cys 15; C-terminal Gly-PEG12c-KN3-NH2, azide joined to BCN on the oligonucleotide, also called A2/C50) [peptide-HDO conjugate of Example 53 (first nucleic acid strand A2, second nucleic acid strand C50)] |
| < 100 nM | AVFVWNYYIIRRYYC (MeF at 3, MeY at 14 (N-methyl); thioether ring from N-terminal chloroacetyl-Ala to Cys 15; C-terminal Gly-KN3-NH2, azide joined to BCN on the oligonucleotide, also called A1/C28) [peptide-HDO conjugate of Example 28 (first nucleic acid strand A1, second nucleic acid strand C28)] |
| < 100 nM | AVFVWNYYIIRRYYC (MeF at 3, MeY at 14 (N-methyl); thioether ring from N-terminal chloroacetyl-Ala to Cys 15; C-terminal Gly-KN3-NH2, azide joined to BCN on the oligonucleotide, also called A2/C31) [peptide-HDO conjugate of Example 39 (first nucleic acid strand A2, second nucleic acid strand C31)] |
| < 100 nM | AVFVWNYYIIRRYYC (MeF at 3, MeY at 14 (N-methyl); thioether ring from N-terminal chloroacetyl-Ala to Cys 15; C-terminal Gly-KN3-NH2, azide joined to BCN on the oligonucleotide, also called A2/C47) [peptide-HDO conjugate of Example 48 (first nucleic acid strand A2, second nucleic acid strand C47)] |
| < 100 nM | AVFVWNYYIIRRYYC (MeF at 3, MeY at 14 (N-methyl); thioether ring from N-terminal chloroacetyl-Ala to Cys 15; C-terminal Gly-KN3-NH2, azide joined to BCN on the oligonucleotide, also called A2/C42) [peptide-HDO conjugate of Example 43 (first nucleic acid strand A2, second nucleic acid strand C42)] |
| < 100 nM | AVFVWNYYIIRRYYC (MeF at 3, MeY at 14 (N-methyl); thioether ring from N-terminal chloroacetyl-Ala to Cys 15; C-terminal Gly-PEG12c-KN3-NH2, azide joined to BCN on the oligonucleotide, also called A1/C50) [peptide-HDO conjugate of Example 50 (first nucleic acid strand A1, second nucleic acid strand C50)] |
| < 100 nM | AVFVWNYYIIRRYYC (MeF at 3, MeY at 14 (N-methyl); thioether ring from N-terminal chloroacetyl-Ala to Cys 15; C-terminal Gly-PEG4c-KN3-NH2, azide joined to BCN on the oligonucleotide, also called A2/C49) [peptide-HDO conjugate of Example 52 (first nucleic acid strand A2, second nucleic acid strand C49)] |
| < 100 nM | AVFVWNYYIIRRYYC (MeF at 3, MeY at 14 (N-methyl); thioether ring from N-terminal chloroacetyl-Ala to Cys 15; C-terminal Gly-KN3-NH2, azide joined to BCN on the oligonucleotide, also called A2/C30) [peptide-HDO conjugate of Example 38 (first nucleic acid strand A2, second nucleic acid strand C30)] |
| < 100 nM | AVFVWNYYIIRRYYC (MeF at 3, MeY at 14 (N-methyl); thioether ring from N-terminal chloroacetyl-Ala to Cys 15; C-terminal Gly-KN3-NH2, azide joined to BCN on the oligonucleotide, also called A1/C32) [peptide-HDO conjugate of Example 32 (first nucleic acid strand A1, second nucleic acid strand C32)] |
| < 100 nM | AVFVWNYYIIRRYYC (MeF at 3, MeY at 14 (N-methyl); thioether ring from N-terminal chloroacetyl-Ala to Cys 15; C-terminal Gly-KN3-NH2, azide joined to BCN on the oligonucleotide, also called A1/C31) [peptide-HDO conjugate of Example 31 (first nucleic acid strand A1, second nucleic acid strand C31)] |
